# In paper PMC1307573:
# Where two headings read alike, the source gives them in different places.
# B1: Gycα-99B/β-100B (Drosophila melanogaster) (protein)
# chain 1: MACPFFRRADSLTRQPSVIAEPGGHWALEDEELSDDALTLTHLQMAIQLLTAPSNEDLNTAVTSLVAKYRQNWPNIHKLKLDPQTFKSCANYDYLADIQELLLKMDEASASEILVLLGEELITCCCTGIIERAFRCLGTDLQEFLGSLDGVYDVLKLQEEDVTDTGFVCAGEGELIFTSERPVIAWLLLGSLKALTRMLYKVDVNIKIEPVEGDARRYRYLFSLVKDNSQTMLMGRPTSVSKTIPETVQRSNSSNASDLQMNSSSFCKMFPWHFIMNEQLELVQLGRGFSKLYKPYMADFGCQATTYFDFKRPKGLTMKFRDIVRRTYTPFLIGLNNPPGAVDFPAIGLEIKGQMVHCPESNSLLFIGSPFLDGLDGLTCNGLFISDIPLHDATREVILVGEQARAQDGLRRRMDKIKNSIEEANSAVTKERKKNVSLLHLIFPAEIAEKLWLGSSIDAKTYPDVTILFSDIVGFTSICSRATPFMVISMLEGLYKDFDEFCDFFDVYKVETIGDAYCVASGLHRASIYDAHKVAWMALKMIDACSKHITHDGEQIKMRIGLHTGTVLAGVVGRKMPRYCLFGHSVTIANKFESGSEALKINVSPTTKDWLTKHEGFEFELQPRDPSFLPKEFPNPGGTETCYFLESFRNPALDSELPLVEHINVSMKTISEGGDA
# chain 2: MYGFVNYALELLVLKHFGEEIWEKIKKKAMVSMEGQFLVRQIYDDEITYNLIGAAVEILNIPADDILELFGKTFFEFCQDSGYDKILQVLGATPRDFLQNLDALHDHLGTLYPGMRAPSFRCTEKDGELLLHYYSERPGLEHIVIGIVKAVASKLHGVEVEIDIVKRKGEPIDEAEKERAIARENQQLLEDAVATTTTGSATVVLAPSSDAERNNNHNGSNGSNNNGMANNGNTVNVNNNNDGQQIASETDPSIALSTCPIAQDSFDCDGDKEQKCLRLLKNKSDDIERYDHVQFLIREINVAAKSQVDAKKDEVPDDMEFLCEAPLISPATFCKVFPFHLMFDRQMKIVQAGKAVSRVIPRVAEENCSLIEVVEAIRPHLQLNFENILSHINTIYVLQTRQGAMSSRHEQRFLRLKGQMMYIPETDRILFQCYPSVMNLDDLTKKGLYISDVPLHDAARDLVLLSEKFEAEYKLTKNLEMLTDKLQQTFRDLESEKQKTDRLLYSVLPKSVANELRHQRPVPPKRYDSVTLMFSGIVGFGQYCAANTDPDGAMKIVKMLNELYTVFDALTDSKRNLNVYKVETVGDKYMAVSGLPDHCEDHAKCMARVALDMMDMAKNVKMGSNPVQITIGIHSGEVVTGVIGNRVPRYCLFGNTVNLTSRTETTGVPGRINVSEETYRLLCMAINQDDSFHLEYRGPVIMKGKPTPMDCWFLTRATSSILGGTSSTGGSGGGGNGSLDSPLLQPATPTAGAATPIPVVAQRAAGHASVSRTSSAGGGGGGAVVGT
# B2: Gyc-88EL (Drosophila melanogaster) (protein)
# chain: MYGLLLENLSEYIKSVYGEEKWEDIRRQAGIDSPSFSVHQVYPENLLQKLAKKAQQVLGVSERDFMDQMGVYFVGFVGQYGYDRVLSVLGRHMRDFLNGLDNLHEYLKFSYPRMRAPSFICENETKQGLTLHYRSKRRGFVYYTMGQIREVARYFYHKEMHIELVREEILFDTVHVTFQLTFDNRAFTLASLAMTREEKHLPISAHVLFEIFPFCMVFGADMVVRSIGNSLMVILPELLGKKITAWFDLVRPLIAFKFQTILNRTNNIFELVTVDPVTERFDVQNEDLLQHEDGSEPEKSLRLKGQMVYMENWRMIMFLGTPVMPDLTSLITTGLYINDLSMHDFSRDLMLAGTQQSVELKLALDQEQQKSKKLEESMRLLDEEMRRTDELLYQMIPKQVADRLRRGENPIDTCEMFDSVSILFSDIVTFTEICSRITPMEVVSMLNAMYSIFDKLTERNSVYKVETIGDAYMVVAGAPDKDANHAERVCDMALDMVDAITDLKDPSTGQHLRIRVGVHSGAVVAGIVGLKMPRYCLFGDTVNTASRMESTSIAMKVHISESTKVLIGPNYKIIERGEIDVKGKGTMGTYWLEERENRLPLQLTAALQVHPLSPVPPTPTPKTKAIMPPVSKPLTPMMPVSVSLAASMPTSNVPAVDVMASSSSISGLALTAAAAAHMSLHHQAVVAEALTGASVEVALPSVASGATGAAAGGGAPSDDRNSRIYSPVTFKDVARRSVANSPVRSCAQPDQERRRESRSNSTGHVFMRTPSEIFGSLILDTEEFLEDLQISRSSLANNNNNQSPCGFSPTPPFRIGSAPPKPRPSNPDKFTPEELAAMDQLTPPSTAPARETASCSSASLDRDKATKLKKITFSNSSSLDATTPTALAAVVCPMRTKSPPMAVAPVMHMVQASTSKGDGQRPGSKDSVSSISLHSPPPHRSNSAPARPHSMSKAARKAFLAAKQTKAMEKLDKMIEEVQEVESQSVAKAANMRLALYGHDGGGDLAAGGCPLFLPPPPQQQQQQQQSLMPSSISDSGLCSHGHSHAPSCHHMDPKMTNSQSFQHSPRGGITHQCCSGFGHGNGRHSHRMHSNACRIL
# B3: Gyc-88EL/89Da (Drosophila melanogaster) (protein)
# chain 1: MYGLLLENLSEYIKSVYGEEKWEDIRRQAGIDSPSFSVHQVYPENLLQKLAKKAQQVLGVSERDFMDQMGVYFVGFVGQYGYDRVLSVLGRHMRDFLNGLDNLHEYLKFSYPRMRAPSFICENETKQGLTLHYRSKRRGFVYYTMGQIREVARYFYHKEMHIELVREEILFDTVHVTFQLTFDNRAFTLASLAMTREEKHLPISAHVLFEIFPFCMVFGADMVVRSIGNSLMVILPELLGKKITAWFDLVRPLIAFKFQTILNRTNNIFELVTVDPVTERFDVQNEDLLQHEDGSEPEKSLRLKGQMVYMENWRMIMFLGTPVMPDLTSLITTGLYINDLSMHDFSRDLMLAGTQQSVELKLALDQEQQKSKKLEESMRLLDEEMRRTDELLYQMIPKQVADRLRRGENPIDTCEMFDSVSILFSDIVTFTEICSRITPMEVVSMLNAMYSIFDKLTERNSVYKVETIGDAYMVVAGAPDKDANHAERVCDMALDMVDAITDLKDPSTGQHLRIRVGVHSGAVVAGIVGLKMPRYCLFGDTVNTASRMESTSIAMKVHISESTKVLIGPNYKIIERGEIDVKGKGTMGTYWLEERENRLPLQLTAALQVHPLSPVPPTPTPKTKAIMPPVSKPLTPMMPVSVSLAASMPTSNVPAVDVMASSSSISGLALTAAAAAHMSLHHQAVVAEALTGASVEVALPSVASGATGAAAGGGAPSDDRNSRIYSPVTFKDVARRSVANSPVRSCAQPDQERRRESRSNSTGHVFMRTPSEIFGSLILDTEEFLEDLQISRSSLANNNNNQSPCGFSPTPPFRIGSAPPKPRPSNPDKFTPEELAAMDQLTPPSTAPARETASCSSASLDRDKATKLKKITFSNSSSLDATTPTALAAVVCPMRTKSPPMAVAPVMHMVQASTSKGDGQRPGSKDSVSSISLHSPPPHRSNSAPARPHSMSKAARKAFLAAKQTKAMEKLDKMIEEVQEVESQSVAKAANMRLALYGHDGGGDLAAGGCPLFLPPPPQQQQQQQQSLMPSSISDSGLCSHGHSHAPSCHHMDPKMTNSQSFQHSPRGGITHQCCSGFGHGNGRHSHRMHSNACRIL
# chain 2: not shown
# B4: Gyc-88EL/89Db (Drosophila melanogaster) (protein)
# chain 1: MYGLLLENLSEYIKSVYGEEKWEDIRRQAGIDSPSFSVHQVYPENLLQKLAKKAQQVLGVSERDFMDQMGVYFVGFVGQYGYDRVLSVLGRHMRDFLNGLDNLHEYLKFSYPRMRAPSFICENETKQGLTLHYRSKRRGFVYYTMGQIREVARYFYHKEMHIELVREEILFDTVHVTFQLTFDNRAFTLASLAMTREEKHLPISAHVLFEIFPFCMVFGADMVVRSIGNSLMVILPELLGKKITAWFDLVRPLIAFKFQTILNRTNNIFELVTVDPVTERFDVQNEDLLQHEDGSEPEKSLRLKGQMVYMENWRMIMFLGTPVMPDLTSLITTGLYINDLSMHDFSRDLMLAGTQQSVELKLALDQEQQKSKKLEESMRLLDEEMRRTDELLYQMIPKQVADRLRRGENPIDTCEMFDSVSILFSDIVTFTEICSRITPMEVVSMLNAMYSIFDKLTERNSVYKVETIGDAYMVVAGAPDKDANHAERVCDMALDMVDAITDLKDPSTGQHLRIRVGVHSGAVVAGIVGLKMPRYCLFGDTVNTASRMESTSIAMKVHISESTKVLIGPNYKIIERGEIDVKGKGTMGTYWLEERENRLPLQLTAALQVHPLSPVPPTPTPKTKAIMPPVSKPLTPMMPVSVSLAASMPTSNVPAVDVMASSSSISGLALTAAAAAHMSLHHQAVVAEALTGASVEVALPSVASGATGAAAGGGAPSDDRNSRIYSPVTFKDVARRSVANSPVRSCAQPDQERRRESRSNSTGHVFMRTPSEIFGSLILDTEEFLEDLQISRSSLANNNNNQSPCGFSPTPPFRIGSAPPKPRPSNPDKFTPEELAAMDQLTPPSTAPARETASCSSASLDRDKATKLKKITFSNSSSLDATTPTALAAVVCPMRTKSPPMAVAPVMHMVQASTSKGDGQRPGSKDSVSSISLHSPPPHRSNSAPARPHSMSKAARKAFLAAKQTKAMEKLDKMIEEVQEVESQSVAKAANMRLALYGHDGGGDLAAGGCPLFLPPPPQQQQQQQQSLMPSSISDSGLCSHGHSHAPSCHHMDPKMTNSQSFQHSPRGGITHQCCSGFGHGNGRHSHRMHSNACRIL
# chain 2: not shown
# Assays:
# Format in all cases: biochemical, Drosophila melanogaster
# [1] = substrate: Nc1nc2c(ncn2[C@@H]2O[C@H](COP(=O)(O)OP(=O)(O)OP(=O)(O)O)[C@@H](O)[C@H]2O)c(=O)[nH]1
# [2] = substrate: Nc1nc2c(ncn2[C@@H]2O[C@H](COP(=O)(O)OP(=O)(O)OP(=O)(O)O)[C@@H](O)[C@H]2O)c(=O)[nH]1; remark: listed apart in the source
# [3] = substrate: Nc1nc2c(ncn2[C@@H]2O[C@H](COP(=O)(O)OP(=O)(O)OP(=O)(O)O)[C@@H](O)[C@H]2O)c(=O)[nH]1; remark: listed apart in the source
# [4] = substrate: Nc1nc2c(ncn2[C@@H]2O[C@H](COP(=O)(O)OP(=O)(O)OP(=O)(O)O)[C@@H](O)[C@H]2O)c(=O)[nH]1; remark: listed apart in the source
protein,measurement,setting,value
B1,Km,[1]; other: in the presence of Mg2+,370 ± 60 µM
same,Vmax,[1]; other: in the presence of Mg2+,2.11 ± 0.10 pmoles cGMP/min/mg protein
same,Km,[1]; other: in the presence of Mn2+,31 ± 8 µM
same,Vmax,[1]; other: in the presence of Mn2+,204 ± 10.6 pmoles cGMP/min/mg protein
B2,Km,[2]; other: in the presence of Mg2+,1730 ± 1300 µM
same,Vmax,[2]; other: in the presence of Mg2+,1.32 ± 0.33 pmoles cGMP/min/mg protein
same,Km,[2]; other: in the presence of Mn2+,32 ± 11 µM
same,Vmax,[2]; other: in the presence of Mn2+,2.26 ± 0.16 pmoles cGMP/min/mg protein
B3,Km,[3]; other: in the presence of Mg2+,2060 ± 1950 µM
same,Vmax,[3]; other: in the presence of Mg2+,1.92 ± 0.65 pmoles cGMP/min/mg protein
same,Km,[3]; other: in the presence of Mn2+,149 ± 14 µM
same,Vmax,[3]; other: in the presence of Mn2+,90.1 ± 2.34 pmoles cGMP/min/mg protein
B4,Km,[4]; other: in the presence of Mg2+,890 ± 170 µM
same,Vmax,[4]; other: in the presence of Mg2+,4.83 ± 0.33 pmoles cGMP/min/mg protein
same,Km,[4]; other: in the presence of Mn2+,9.4 ± 4.8 µM
same,Vmax,[4]; other: in the presence of Mn2+,8.72 ± 0.82 pmoles cGMP/min/mg protein
